Test results taken from the DeepSol protein solubility set.

Assay: soluble on expression in E. coli; label from the status in PepcDB or PDB records
In the case of “MGSDKIHHHHHHSGSFDPVTGAYTTDPITVTLTPKTVAVSTSVIANGERVYWATDKYPQGAGTFYWGSHTYTLESASDVTLAIPGINASGVCTATGSGTSLTINGCFSFSHNGTIYMGKSASCKSFFSLQSNLSSLTNFGDFVALTLGPGTNTIQLNKTGITDVNTTSFTYPSTTRSTSYRWTTYDINLQATLSAKTPPYTYLYCSVSQGLRVIMTTGGVVPNPFAMVPAASKPAYSPTISYSPALPIINTIAVNIRNITAIDILPRTVFNTGTISAWRTTYMEQPLTVTGQGNITRDFGASQNFNVLESWTCATTGQIDFRIMRDNTNANVCSGATYTHPVQTPQSLTAQWKAQSSTASGAWSARATVTFTLP”, the “soluble on expression in E. coli” value is reported as “not soluble”. In the case of “MGSDKIHHHHHHSKNSLPILDSFLFNLEGNTLTVTASDAETRLVTSVDVMNAQGAGLFAVSAKILLDPLKELPEQPLTFDINDENLEIFIHFQNGKYNFIGQKGDTYPQQKPLNDNAISISMDAQMLLNGISRSLFATADDELRPVMNGVYFDIHTDDLTFVASDGHKLVRLRNLAVKSPERASFILPKKPANLLKNLLAKESEQVLIKFDDNNAYITCTNFEMVCRLIEGRYPNYNSVIPQENPFKVTIDRISFLNALKRVSVFSNPASSLVKLHLKDSLITVSAQDIDFSTSAEERIVCQFDGTELSIGFKATYLIEILGNISSEEVVLELADPSRAGLIVPSENDEDEDLLMLLMPMMLND”, the “soluble on expression in E. coli” value is reported as “not soluble”. For “MGSDKIHHHHHHSPTTTVTTTDASVTTTPPTTTPPTTAVVTDCTTCTAALITLTQGTDGAVDATPVEGVDATGCATITYTCENTPVDAQNVIFLTFYGGGIDRGVDQGTGSLNVLLNCVDGAWVRGGLVIDEILCQVI”, the “soluble on expression in E. coli” value was “not soluble”. In the case of “MGSDKIHHHHHHSRSGEKAAQQLVDYFIYQEKPETFSQTFREPKVLAEHLQTSRQQFQKQFFNSLKEMNAEVTETEAQKLSAELLAQVKKKASYQLVATKELNGQATITFQIKGLDFVTAIEDTTTALLQQTQQATQALDMQHTLAVLKKEIQQINVSHEPVELPLTVKQVEGQWYLPAVEQLRLNQFFLAFVTGKEDTDQLTEALDTILTQAEQKVVTADERTAIAGN”, the “soluble on expression in E. coli” value is reported as “not soluble”. In the case of “MGSDKIHHHHHHTKRWEEGKMSNFEYLTMLNLFAGRTIHDSSSSPIFPRILAKFGDKSVDLQDKTIYRKLDRPVAAQDPVSVEKHKEHYNELKENEEISHLTPYHFGSMCSNRGVVSFFNIRLLPFGEEAIELQDGRFDFPDRLFHNIESGLGLGKIESSNDYKELVPELFTTVEVLRNDNGNQFGEKQNGETVNDVDVPQWCYMDEKAVHENFIYLHRHALESEIVQSMLHHWIDLVFGYKSRGKSAHDAINVYHPAVYPGNSPPPSFDRVMTNAYEANQKTLGTAPIQLFTQSHPKR”, the “soluble on expression in E. coli” value is reported as “not soluble”. With “MGSDKIHHHHHHTSEEREVFENQEGMHRLIPLIEAQTEEDLTPTMREYFAQIREYRKTPHVKGFGWFGNWTGKGNNAQNYLKMLPDSVDFVSLWGTRGYLSDEQKADLKFFQEVKGGKALLCWIIQDLGDQLTPKGLNATQYWVEEKGQGNFIEGVKAYANAICDSIEKYNLDGFDIDYEPGYGHSGTLANYQTISPSGNNKMQVFIETLSARLRPAGRMLVMDGQPDLLSTETSKLVDHYIYQAYWESSTSSVIYKINKPNLDDWERKTIITVEFEQGWKTGGITYYTSVRPELNSMEGNQILDYATLDLPSGKRIGGIGTYHMEYDYPNDPPYKWLRKALYFGNQVYPGKFD” the “soluble on expression in E. coli” value was “not soluble”. For “MGSDKIHHHHHHTVPTFYLFGLLIMHNAAQHNYVISLTTEQKRRKHITEEFGKQNIPFEFFDAITPDIIEETAKKFNITLDRSPKAKLSDGEIGCALSHIVLWDLALENNLNYINIFEDDIHLGENAKELLEIDYISDDIHVLKLEANGKMFFKQPKSVKCDRNVYPMTVKQSGCAGYTVTAKGAKYLLELVKNKPLDVAVDSLVFEDFLHFKDYKIVQLSPGICVQDFVLHPDNPFESSLQEGRDRVHGNQRKSSILEKIKNEFGRVKIKMFGKQVPFK”, the “soluble on expression in E. coli” value was “not soluble”. For “MGSDKIHHHHHHVAPPTKGGLAEAENKMENKMTEQQGYWIGEAGKPWGEAEKAKWRAAQQKKRSYEQEVLSKFSQVSESFEAQQYGELNYAEGQYPLYGFKSRDWDQEKPTILVTGGVHGYETSGVQGALRFLIAKAAEYSQDFNILVAPCVSPWGYETINRWNPEAIDPNRSFYADSPAQESRALMQWVASFNLPLMAHIDLHETTDTDNSEFRPALAARDAKVQTNWNIPDGFYLVGDSENPNDEMQAAIIAAVGKVTHIAPADEQGRLIGEPITQFGVINYATKALGLCSGFSDARYNTTTEVYPDSPLVDDENCIQAQVMAVSSALDYIRSQG”, the “soluble on expression in E. coli” value was “not soluble”. With “MGSDKIHHHHHHVEGDCMGKGRFILMLHAHLPFINHPDFPSFMEERWLFEAITETYIPLLQGFRRLKRDGVNFKVTMSITPPLMEMFANKDLQKKYLNYLSSSIELAGNEISRTVSEHPAANRLATHYLRELEEIRAVYNECNGDLVGEFAQLQETGELEIVTCNATHGFLPLMTNFPEAINAQIEIGVDSYKKHTGREPRGIWLAECGYVPGFDSYLREHGLSFFFVDSHSLWYGDPAPRYGVYRPVVTPENVFAFARDPESSQQVWSAEVGYPGDARYREFYRDVGFDREEDYIRPYIDPSGERCNTGIKYYKITGKDVSLNEKGYYDIEDARRATVEHAKDFANRKREQIRRLSSQFDGEEPVIVAPFDAELFGHWWYEGPLFIEELFRELNGDITVVPSTPPEVIKSMEQAQVVTP” the “soluble on expression in E. coli” value was “not soluble”. With “MGSDKIHHHHHHVKKLLNTLFINQSDSYLALDGGNVLVKADGQVLGRVPLHNLEGIVAFGYTGASPALMGHCAENGIALTFMTKNGRFLARVIGESRGNVVLRKTQYRRSDDEVASARLAKNFILGKLYNQKWMLERMTRDYPLRLDVERFKTTSQDMTETMREIQVCENLERLRGLEGTIAVRYNRLFDSMILQQKEDFHFKGRTRRPPLDRVNAMLSFAYSLLARDVSAALEAVGLDAYVGFLHRERPGRASLALDVMEELRGIYADRFVLSLINKKVIQGKDFLQKENGAVIMTEEGRKTFLTAWQKKKQETIQHPYLKEKMMWGLVPYEQALLLARHLRDDLEAYPPFLYK” the “soluble on expression in E. coli” value was “not soluble”. With “MGSDKIHHHHHHVKQQRKEIQVLDRLNQAMEYIERHLDQRIEGAELAQIAATSEYHMRRLFSALAGMPLSEYIRRRRLTVAGAEVLAGDRTLLDIAVRYGYGSAEAFARAFRAMHGVGPGEARRTGAPLRSQPRMSFRLVVEGSTDMRYRIVEKDAFQVVGKKARVPLVYEGPNPAIVEFVRSIDPGTLQRLAELSDQEPRGVVAAVANIAGERVSAPEGTELDYYHGVVTSAPAPEDMAVLPVAAGLWAVFEVEGEAPYAIQYLWRDVFTQWFPANPYQSVPGPELLRTTMSQDGAYVEAELWVPVERVER” the “soluble on expression in E. coli” value was “not soluble”. For “MGSDKIHHHHHHVKVLVTGAAGFIGYSLATRLLARGDEVIGVDIVNDYYDPRLKEARLARLAQQGGGRFTFLRTDFADYPALTAALEGAHFDRIVHLGAQAGVRYSIENPHAYVQSNLVGHVNLLEVARHRGVEHMVYASSSSVYGGNTKLPFSVDDRVDHPLSLYAATKKADELMSETYAHLYRLPLTGLRFFTVYGPWGRPDMMMWLFTRAILAGEPIQVFNHGDMYRDFTYVDDIVSGVVACLDNPPLDDGAPKAGGSLKPHRLYNIGNHKSEHLMKVIAILEAELGRKAEMRMLPMQPGDVRQSFADIDAISGDLGYRPTTGIETGVPNFVRWYKDYHGL”, the “soluble on expression in E. coli” value was “not soluble”. In the case of “MGSDKIHHHHHHVPLNSPLQLSLPVHLPDDETFNSYYPAAGNDELIQKLRANAEGQGEAAIYLWGPVKSGRTHLMHAACAHANEVERRSFYIPLGIHASISTALLEGLEQLDLVCIDDVDAIAGHPVWEEAIFDLYNRVAEHKNCALVVSGSSSPADAGFLLPDLVSRMQWGLNYQLQPMADDEKLAALQRRAAMRGLQLPEDVGRFLLNRMARDLRTLFDVLDKLDKASLVHQRKLTIPFAKEMLHL”, the “soluble on expression in E. coli” value is reported as “not soluble”. In the case of “MGSDKIHHHHHHVPRVARIKSKSGIYHIIMRGINRQIVFEENEDCVKFIQTLQKIQAICKYRLYAYCLMGNHLHLLLMEGTEPLGNVMRRICSSYVLWYNKKYDRVGYLFQDRFKSEPVEDDGYFLTVLRYIFQNPVKAGIVTKIKDYKWTNYTDYIEGSNKTDTDFVLDFFNTNRERAIRSFIEYINKTNDDKCLDIPGKRQLTDEDAKKIIKDHCHIYNALDLYKFDVNKRNQYLKELKEGYGLSIRQIERLTGIGRGIIQRA”, the “soluble on expression in E. coli” value is reported as “not soluble”. In the case of “MGSDKIHHHHHHVQESREFILEIAQLNKTYSGNRVLNNINFDLKLGEVHALVGENGAGKSTLIKIIAGVEKPDPGAEILFGGCPAINLNPSKSVQMGISVIYQDISLFPNLSVAENICIGGQKGLFIKWKQVFETARSALIKLGAIDIDPHVPLGEISIGQRQMVALARALTHEARVIIMDEPTSSLSANEIKALYSAIQILKNENKSLIYISHKFEEVFEVADRISVLRDGEMIASKAAWEFDEQSLISMMVGREIRFLPMRNDGVAGKKLLEVRGLTKEPLFRNISFSLYENEILGITGLVGAGRSEMAQTLFGLEKADKGRIFMGEKELSIKSAVDAIKSGICYLPEDRRGQGIFLIQSMARNITTAKLESILNRCRLLSRPKEMAVSEYYMDRLNIKPRLPDISADKMSGGNQQKLLFSRWLNARPQILIADEPSSGIDVATKAEIHGLLRELAASGVGVILISSDLPETLAVCDRILVMRNGNIVDQTSSKESSQEELIRKGLMG”, the “soluble on expression in E. coli” value is reported as “not soluble”. For “MGSDKIHHHHHHVRALVVSVDNTARREGDTGRRVGMQPPEPPFPHNEKESTAVNFKEMQATLMHELRLYHYPVAVKFFFDQAEVDKFKAETEYYTPLKAMTFCQWQIAARMKGQTVYSEREGLGCSNAVFSFGWKDLDEAEVKSHAKYCKDLDQAKRFVETKSRLPEGLIGIAVAPLADATFMPDTVHFYCDNMQAYHLAVDYMAATDTHPLRPQITMNSSACGGNVYTMVEKQFNMLPACSGSYNAGKTERGEINVIIPGEQMQMVYERLLERMEKLGSSSITKPGDGFPGADVCKNCPLIVFKKAKD”, the “soluble on expression in E. coli” value was “not soluble”. In the case of “MGSDKIHHHHHHVSSSLKDIQNKNQELDTKKQILSALNIRDVKDADAEYNKYVKGDMLMNVDGTLTENTDGFSISYEKEAKENNRLHVFVCEVDGETKYVVPVYGAGLWGAIWGYVALNADKDTVYGVYFSHASETPGLGAEIAGAAFQNEFSGKKVLKDGQVALAVEKNGKVTDPAYQVDGISGGTITSKGVDAMIKACLSQYDKFLTNN”, the “soluble on expression in E. coli” value is reported as “not soluble”. With “MGSDKIHHHHHHVTALSIIKEAEHSLQMLFNELEEIAYTNQVRVIEAFHKHRVREYYFYPSTGYGYGDSGRDALEDIFADIFGTEDALVRSQVVSGTHAISACLFALLRPGDELISLTGSPYDTLCRIIGHEEKSPGTLIDKGIKYSEVDLDERGKPDLTAIAAAIKDTSRMVLIQRSRGYKTRPPVDLDTIAAITKLVKARNPATIVMLDNCYGEFTAVQEPGHYGVDIIAGSLIKNPGGGLIPSGGYIAGNQDLIEQLAFHLTAPGLGKELGASLLDKRIMYQGLFLAPHTVLQALKGAVLLAYVFEEHGYEVFPRWNEKRSDIVQAVKLRDAAEVLRFCQEVQNASPVDSDVTLEYGELPAYRDKIVMAAGTFVQGSSIELSCDAPLRSPHCVFLQGGLSYEHCRFLLQRLLDRFLLANA” the “soluble on expression in E. coli” value was “not soluble”. In the case of “MGSDKIHHHHHHVTQNSPRQLSLPVYLPDDETFQSYYPASGNDELIQKLQASAQGGLSSSLYIYGPVKSGRTHLMHAACALANDKDRRTLYIPLGIHASISPALFEGLESLELICIDDIDAIAGHPIWEEAIFHLYNRIAEHKDCHLIVSGKASPTEAGFLLPDLVSRMQWGLIYQLQPMADDEKLLALQRRAAMRGLQLSDEVGRFLLTRMARDLRTLFDVLDKLDKASMVHQRKLTIPFIKEMLRL”, the “soluble on expression in E. coli” value is reported as “not soluble”.
